In PMC11354668:

tested on: ChromPure mouse IgG whole molecule (mouse); test: BLI; details: 5'-biotin (unmodified in SPA competition); BLI (Octet K2), SAX2.0 sensors loaded with 0.5 uM 5'-biotin DNA, IgG 0.0125-0.2 mg/mL, PBST-B, 30 C; pH not …

Substance | Kd [nM]
CGCCTAGGTTGGGTAGGGTGGTGGCG [6GN7] | 241

same assay, conditions: 5'-biotin; BLI (Octet K2), SAX2.0 sensors loaded with 0.5 uM 5'-biotin DNA, IgG 0.0125-0.2 mg/mL, PBST-B, 30 C; pH not …

Substance | Kd [nM]
CAGTGGCTGA [2KN7] | 1200
CCCCCCCCCCCCCCC [poly-C15] | 1360
GCGGCGG [5FGP] | 1510
GGGGGGGGGG [poly-G10] | 295
GGGGGGGGGGGGGGG [poly-G15] | 273
GGGGTGGGTGGTGGGT [7XHD] | 521
GGGGTTTTGGGG [1OTC] | 414
GGGGTTTTGGGGT [1PH1-D] | 881
GGGTCGGTGCCTTA [6CRM] | 1110
GGTTGGTGTGGTTGG [1RDE] | 1090
TGGGGTGTGG [2A0I] | 872
TGTACAATGGG [3UGO] | 793
TTTTTTTT [7JSI] | 1830
TTTTTTTTTT [4OU6] | 947
TTTTTTTTTT [poly-T10] | 1490
TTTTTTTTTTTT [4JS5] | 1730
TTTTTTTTTTTTTTT [2CCZ] | 909
TTTTTTTTTTTTTTT [poly-T15] | 909
TTTTTTTTTTTTTTTG [2C62] | 3240
TTTTTTTTTTTTTTTT [6SKO] | 1070
TTTTTTTTTTTTTTTTT [7JSG] | 1120
TTTTTTTTTTTTTTTTTTCCCTTTTTTTTTTTTTTTTTTT [5XRZ] | 843
TTTTTTTTTTTTTTTTTTTT [poly-T20] | 830
TTTTTTTTTTTTTTTTTTTTTTTTT [4GNX] | 2100
TTTTTTTTTTTTTTTTTTTTTTTTT [poly-T25] | 1010
TTTTTTTTTTTTTTTTTTTTTTTTTTTTTT [poly-T30] | 1430

molecular target: staphylococcal protein A (UniProt P38507); test: BLI; Octet K2; SPA biosensor (sensor type: ProA) with mouse IgG; SPA-IgG run as positive control; the IgG concentrations and times of this kinetic run are not described; details: not given

Substance | Kd [nM] | koff [s⁻¹] | kon [M⁻¹ s⁻¹]
ChromPure mouse IgG whole molecule (antibody) | 14.9 | 0.000716 | 48000
